{"source": "patent US20230265151A1", "about": "“GIP/GLP1 CO-AGONIST COMPOUNDS” (priority 2020, published 2023)", "binders": {"B1": {"name": "Example 321 (peptide)", "peptide": "YXEGTXTSDXSIXLDXKAQXKFIXXLIEGGPSSGAPPPS", "modifications": "Aib2, αMeF(2F)6, Nle10, αMeL13, Orn16, Aib20, D-Glu24, αMeY25; K17 and K21: AEEA2-(γ-Glu)-(10-(4-carboxyphenoxy)decanoyl); C-terminal NH2"}, "B2": {"name": "Example 320 (peptide)", "peptide": "B1 peptide", "modifications": "Aib2, αMeF(2F)6, hTyr10, αMeL13, Orn16, Aib20, D-Glu24, αMeY25; K17 and K21: AEEA2-(γ-Glu)-(10-(4-carboxyphenoxy)decanoyl); C-terminal NH2"}, "B3": {"name": "Example 335 (peptide)", "peptide": "B1 peptide with K21E, E28K", "modifications": "Aib2, αMeF(2F)6, hTyr10, αMeL13, Orn16, Aib20, D-Glu24, αMeY25; K17 and K28: AEEA2-(γ-Glu)-CO-(CH2)10-CH3; C-terminal NH2"}, "B4": {"name": "Example 310 (peptide)", "peptide": "B1 peptide with K17I, K21E, X24K, E28K", "modifications": "Aib2, αMeF(2F)6, hTyr10, αMeL13, Orn16, Aib20, αMeY25; K24 and K28: AEEA2-(γ-Glu)-(10-(4-carboxyphenoxy)decanoyl); C-terminal NH2"}, "B5": {"name": "Example 328 (peptide)", "peptide": "B1 peptide with K21E, E28K", "modifications": "Aib2, αMeF(2F)6, Nle10, αMeL13, Orn16, Aib20, D-Glu24, αMeY25; K17 and K28: AEEA2-(γ-Glu)-(10-(4-carboxyphenoxy)decanoyl); C-terminal NH2"}, "B6": {"name": "Example 323 (peptide)", "peptide": "B1 peptide", "modifications": "Aib2, αMeF(2F)6, hTyr10, αMeL13, Orn16, Aib20, D-Glu24, αMeY25; K17 and K21: AEEA2-(γ-Glu)-CO-(CH2)10-CH3; C-terminal NH2"}, "B7": {"name": "Example 332 (peptide)", "peptide": "B1 peptide with K17I, E28K", "modifications": "Aib2, αMeF(2F)6, hTyr10, αMeL13, Orn16, Aib20, D-Glu24, αMeY25; K21 and K28: AEEA2-(γ-Glu)-(10-(4-carboxyphenoxy)decanoyl); C-terminal NH2"}, "B8": {"name": "Example 327 (peptide)", "peptide": "B1 peptide with K21E, E28K", "modifications": "Aib2, αMeF(2F)6, hTyr10, αMeL13, Orn16, Aib20, D-Glu24, αMeY25; K17 and K28: AEEA2-(γ-Glu)-(10-(4-carboxyphenoxy)decanoyl); C-terminal NH2"}, "B9": {"name": "Example 291 (peptide)", "peptide": "YXEGTXTSDXSIXLDXKAQXEFIXXLIEGGPSSGAPPPSK", "modifications": "Aib2, αMeF(2F)6, OMeY10, αMeL13, Orn16, Aib20, D-Glu24, αMeY25; K17 and K40: AEEA2-(γ-Glu)-CO-(CH2)10-CH3; C-terminal NH2"}}, "note": "Changes are numbered by the printed parent chain. *1 amine or outer side, *2 acyl side, *3 side chain or, on linkers, in order; H or OH if unused. Where no end group is shown, it is not given here. Side-chain parts run from the residue outwards. [ ]: non-standard residue; d: D form. The star is where a group is joined. Decanoyl(10-(4-HOOC-PhO)) = O=C(O)c1ccc(OCCCCCCCCCC(=O)*)cc1; αMePhe(2-F) = C[C@](N)(Cc1ccccc1F)C(=O)O; γGlu = O=C(O)[C@H](CCC(=O)[*:2])N[*:1]; αMeY = C[C@](N)(Cc1ccc(O)cc1)C(=O)O; αMeL = CC(C)C[C@](C)(N)C(=O)O; Nle = CCCC[C@H](N)C(=O)O; Orn = NCCC[C@H](N)C(=O)O; AEEA = NCCOCCOCC(=O)O; Aib = CC(C)(N)C(=O)O"}
{"target": "T1, human GIP receptor (human, UniProt P48546 22-466)", "T1 sequence (looked up)": "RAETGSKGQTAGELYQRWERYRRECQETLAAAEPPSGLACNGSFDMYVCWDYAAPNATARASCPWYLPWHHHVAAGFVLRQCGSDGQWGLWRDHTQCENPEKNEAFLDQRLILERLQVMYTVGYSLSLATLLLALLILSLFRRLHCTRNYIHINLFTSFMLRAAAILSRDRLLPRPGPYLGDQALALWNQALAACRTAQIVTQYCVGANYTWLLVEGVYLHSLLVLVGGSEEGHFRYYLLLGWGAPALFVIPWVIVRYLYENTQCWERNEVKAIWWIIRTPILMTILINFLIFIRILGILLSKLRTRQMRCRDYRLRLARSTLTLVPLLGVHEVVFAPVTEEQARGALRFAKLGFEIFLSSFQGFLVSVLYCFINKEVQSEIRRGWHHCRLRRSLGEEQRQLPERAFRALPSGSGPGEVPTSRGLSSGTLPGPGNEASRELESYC", "experiment": "cell-based or functional assay", "units": {"cAMP EC50": "nM"}}
{"binder": "Y[Aib]EGT[αMePhe(2-F)]TSD[Nle]SI[αMeL]LD[Orn]IAQ[Aib]EFIK([AEEA-AEEA-γGlu-Decanoyl(10-(4-HOOC-PhO))])[αMeY]LIK([AEEA-AEEA-γGlu-Decanoyl(10-(4-HOOC-PhO))])GGPSSGAPPPS-NH2", "note": "[Example 314]", "cAMP EC50": 0.0216}
{"binder": "B1", "cAMP EC50": 0.0107}
{"binder": "B2", "cAMP EC50": 0.0144}
{"binder": "B3", "cAMP EC50": 0.00871}
{"binder": "B4", "cAMP EC50": 0.025}
{"binder": "B5", "cAMP EC50": 0.00973}
{"binder": "B6", "cAMP EC50": 0.00793}
{"binder": "B7", "cAMP EC50": 0.0109}
{"binder": "B8", "cAMP EC50": 0.018}
{"binder": "B9", "cAMP EC50": 0.012}
{"target": "human GLP-1 receptor (human, UniProt P43220 24-463)", "experiment": "cell-based or functional assay", "units": {"cAMP EC50": "nM"}}
{"binder": "Y[Aib]EGT[αMePhe(2-F)]TSD[Nle]SI[αMeL]LD[Orn]IAQ[Aib]EFIK([AEEA-AEEA-γGlu-Decanoyl(10-(4-HOOC-PhO))])[αMeY]LIK([AEEA-AEEA-γGlu-Decanoyl(10-(4-HOOC-PhO))])GGPSSGAPPPS-NH2", "note": "[Example 314]", "cAMP EC50": 0.673}
{"binder": "B1", "cAMP EC50": 0.295}
{"binder": "B2", "cAMP EC50": 0.246}
{"binder": "B3", "cAMP EC50": 0.175}
{"binder": "B4", "cAMP EC50": 0.347}
{"binder": "B5", "cAMP EC50": 0.405}
{"binder": "B6", "cAMP EC50": 0.203}
{"binder": "B7", "cAMP EC50": 0.263}
{"binder": "B8", "cAMP EC50": 0.211}
{"binder": "B9", "cAMP EC50": 0.207}
{"target": "human glucagon receptor (human, UniProt P47871 26-477)", "experiment": "cell-based or functional assay", "units": {"cAMP EC50": "nM"}}
{"binder": "Y[Aib]EGT[αMePhe(2-F)]TSD[Nle]SI[αMeL]LD[Orn]IAQ[Aib]EFIK([AEEA-AEEA-γGlu-Decanoyl(10-(4-HOOC-PhO))])[αMeY]LIK([AEEA-AEEA-γGlu-Decanoyl(10-(4-HOOC-PhO))])GGPSSGAPPPS-NH2", "note": "[Example 314]", "cAMP EC50": "> 9950"}
{"binder": "B1", "cAMP EC50": "> 9950"}
{"binder": "B2", "cAMP EC50": "> 9950"}
{"binder": "B3", "cAMP EC50": "> 9950"}
{"binder": "B4", "cAMP EC50": "> 9950"}
{"binder": "B5", "cAMP EC50": "> 9950"}
{"binder": "B6", "cAMP EC50": "> 9950"}
{"binder": "B7", "cAMP EC50": "> 9950"}
{"binder": "B8", "cAMP EC50": "> 9950"}
{"binder": "B9", "cAMP EC50": "> 9950"}
